To fix the notation:
B1: library; numbered along this chain (parent)
chain: MRKPRAAVGSGHRKQAASQEGRQKHAKNNSQAKPSACDGLARQPEEVVLQASVSSYHLFRDVAEVTAFRGSLLSWYDQEKRDLPWRRRAEDEMDLDRRAYAVWVSEVMLQQTQVATVINYYTGWMQKWPTLQDLASASLEEVNQLWAGLGYYSRGRRLQEGARKVVEELGGHMPRTAETLQQLLPGVGRYTAGAIASIAFGQATGVVDGNVARVLCRVRAIGADPSSTLVSQQLWGLAQQLVDPARPGDFNQAAMELGATVCTPQRPLCSQCPVESLCRARQRVEQEQLLASGSLSGSPDVEECAPNTGQCHLCLPPSEPWDQTLGVVNFPRKASRKPPREESSATCVLEQPGALGAQILLVQRPNSGLLAGLWEFPSVTWEPSEQLQRKALLQELQRWAGPLPATHLRHLGEVVHTFSHIKLTYQVYGLALEGQTPVTTVPPGARWLTQEEFHTAAVSTAMKKVFRVYQGQQPGTCMGSKRSQVSSPCSRKKPRMGQQVLDNFFRSHISTDAHSLNSAAQ
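Note: cells sorted at 72 h after reporter transfection.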

The variants in the series derive from B1. Description: 8OG:A repair function score (normalized; synonymous = 0, nonsense = -1) (normalized log-likelihood score); higher = more repair activity (WT-like). To be noted: with 8OG:A DNA repair reporter (GFP) in HEK-293 MUTYH KO cells. An outline of the steps: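 GFP+ (repair) and GFP− bins of viable mCherry+ cells were collected at 72 h from MUTYH knockout HEK-293 cells bearing lentiviral MUTYH cDNA NNN codon-scan libraries in 10 pg/ml doxycycline, co-transfected with an 8OG:A GFP repair reporter and mCherry. Tile amplicons were sequenced, and per-tile Rosace fitness scores were normalized to a repair function score anchored on synonymous and nonsense distributions. Synonymous medians were set to 0 and nonsense to -1, with variants under 300 counts per million at the start removed.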
On to MRKPRAAVGSGHRKQAASQEGRQKHAKNNSQAKPSACDGLARQPEEVVLQASVSSYHLFRDVAEVTAFRGSLLSWYDQEKRDLPWRRRAEDEMDLDRRAYAVWVSEVMLQQTQVATVINYYTGWMQKWPTLQDLASASLEEVNQLWAGLGYYSRGRRLQEGARKVVEELGGHMPRTAETLQQLLPGVGRYTAGAIASIAFGQATGVVDGNVARVLCRVRAIGADPSSTLVSQQLWGLAQQLVDPARPGDFNQAAMELGATVCTPQRPLCSQCPVESLCRARQRVEQEQLLASGSLSGSPDVEECAPNTGQCHLCLPPSEPWDQTLGVVNFPRKASRKPPREESSATCVLEQPGALGAQILLVQRPNSGLLAGLWEFPSVTWEPSEQLQRKALLQELQRWAGPLPATHLRHLGEVVHTFSHIKLTYQVYGLALEWQTPVTTVPPGARWLTQEEFHTAAVSTAMKKVFRVYQGQQPGTCMGSKRSQVSSPCSRKKPRMGQQVLDNFFRSHISTDAHSLNSAAQ [G434W], for which the “8OG:A repair function score” value stood at 0.0509. With MRKPRAAVGSGHRKQAASQEGRQKHAKNNSQAKPSACDGLARQPEEVVLQASVSSYHLFRDVAEVTAFRGSLLSWYDQEKRDLPWRRRAEDEMDLDRRAYAVWVSEVMLQQTQVATVINYYTGWMQKWPTLQDLASASLEEVNQLWAGLGYYSRGRRLQEGARKVVEELGGHMPRTAETLQQLLPGVGRYTAGAIASIAFGQATGVVDGNVARVLCRVRAIGADPSSTLVSQQLWGLAQQLVDPARPGDFNQAAMELGATVCTPQRPLCSQCPVESLCRARQRVEQEQLLASGSLSGSPDVEECAPNTGQCHLCLPPSEPWDQTLGVVNFPRKASRKPPREESSATCVLEQPGALGAQILLVQRPNSGLLAGLWEFPSVTWEPSEQLQRKALLQELQRWAGPLPATHLRHLGEVVHTFSHIKLTYQVYGLALEYQTPVTTVPPGARWLTQEEFHTAAVSTAMKKVFRVYQGQQPGTCMGSKRSQVSSPCSRKKPRMGQQVLDNFFRSHISTDAHSLNSAAQ [G434Y] the figure was 0.0378. With MRKPRAAVGSGHRKQAASQEGRQKHAKNNSQAKPSACDGLARQPEEVVLQASVSSYHLFRDVAEVTAFRGSLLSWYDQEKRDLPWRRRAEDEMDLDRRAYAVWVSEVMLQQTQVATVINYYTGWMQKWPTLQDLASASLEEVNQLWAGLGYYSRGRRLQEGARKVVEELGGHMPRTAETLQQLLPGVGRYTAGAIASIAFGQATGVVDGNVARVLCRVRAIGADPSSTLVSQQLWGLAQQLVDPARPGDFNQAAMELGATVCTPQRPLCSQCPVESLCRARQRVEQEQLLASGSLSGSPDVEECAPNTGQCHLCLPPSEPWDQTLGVVNFPRKASRKPPREESSATCVLEQPGALGAQILLVQRPNSGLLAGLWEFPSVTWEPSEQLQRKALLQELQRWAGPLPATHLRHLGEVVHTFSHIKLTYQVYGLALEGDTPVTTVPPGARWLTQEEFHTAAVSTAMKKVFRVYQGQQPGTCMGSKRSQVSSPCSRKKPRMGQQVLDNFFRSHISTDAHSLNSAAQ [Q435D] the figure was 0.0234; with MRKPRAAVGSGHRKQAASQEGRQKHAKNNSQAKPSACDGLARQPEEVVLQASVSSYHLFRDVAEVTAFRGSLLSWYDQEKRDLPWRRRAEDEMDLDRRAYAVWVSEVMLQQTQVATVINYYTGWMQKWPTLQDLASASLEEVNQLWAGLGYYSRGRRLQEGARKVVEELGGHMPRTAETLQQLLPGVGRYTAGAIASIAFGQATGVVDGNVARVLCRVRAIGADPSSTLVSQQLWGLAQQLVDPARPGDFNQAAMELGATVCTPQRPLCSQCPVESLCRARQRVEQEQLLASGSLSGSPDVEECAPNTGQCHLCLPPSEPWDQTLGVVNFPRKASRKPPREESSATCVLEQPGALGAQILLVQRPNSGLLAGLWEFPSVTWEPSEQLQRKALLQELQRWAGPLPATHLRHLGEVVHTFSHIKLTYQVYGLALEGCTPVTTVPPGARWLTQEEFHTAAVSTAMKKVFRVYQGQQPGTCMGSKRSQVSSPCSRKKPRMGQQVLDNFFRSHISTDAHSLNSAAQ [Q435C], 0.293. The same measure for MRKPRAAVGSGHRKQAASQEGRQKHAKNNSQAKPSACDGLARQPEEVVLQASVSSYHLFRDVAEVTAFRGSLLSWYDQEKRDLPWRRRAEDEMDLDRRAYAVWVSEVMLQQTQVATVINYYTGWMQKWPTLQDLASASLEEVNQLWAGLGYYSRGRRLQEGARKVVEELGGHMPRTAETLQQLLPGVGRYTAGAIASIAFGQATGVVDGNVARVLCRVRAIGADPSSTLVSQQLWGLAQQLVDPARPGDFNQAAMELGATVCTPQRPLCSQCPVESLCRARQRVEQEQLLASGSLSGSPDVEECAPNTGQCHLCLPPSEPWDQTLGVVNFPRKASRKPPREESSATCVLEQPGALGAQILLVQRPNSGLLAGLWEFPSVTWEPSEQLQRKALLQELQRWAGPLPATHLRHLGEVVHTFSHIKLTYQVYGLALEGHTPVTTVPPGARWLTQEEFHTAAVSTAMKKVFRVYQGQQPGTCMGSKRSQVSSPCSRKKPRMGQQVLDNFFRSHISTDAHSLNSAAQ [Q435H]: 0.148; for MRKPRAAVGSGHRKQAASQEGRQKHAKNNSQAKPSACDGLARQPEEVVLQASVSSYHLFRDVAEVTAFRGSLLSWYDQEKRDLPWRRRAEDEMDLDRRAYAVWVSEVMLQQTQVATVINYYTGWMQKWPTLQDLASASLEEVNQLWAGLGYYSRGRRLQEGARKVVEELGGHMPRTAETLQQLLPGVGRYTAGAIASIAFGQATGVVDGNVARVLCRVRAIGADPSSTLVSQQLWGLAQQLVDPARPGDFNQAAMELGATVCTPQRPLCSQCPVESLCRARQRVEQEQLLASGSLSGSPDVEECAPNTGQCHLCLPPSEPWDQTLGVVNFPRKASRKPPREESSATCVLEQPGALGAQILLVQRPNSGLLAGLWEFPSVTWEPSEQLQRKALLQELQRWAGPLPATHLRHLGEVVHTFSHIKLTYQVYGLALEGATPVTTVPPGARWLTQEEFHTAAVSTAMKKVFRVYQGQQPGTCMGSKRSQVSSPCSRKKPRMGQQVLDNFFRSHISTDAHSLNSAAQ [Q435A]: -0.0344.

For MRKPRAAVGSGHRKQAASQEGRQKHAKNNSQAKPSACDGLARQPEEVVLQASVSSYHLFRDVAEVTAFRGSLLSWYDQEKRDLPWRRRAEDEMDLDRRAYAVWVSEVMLQQTQVATVINYYTGWMQKWPTLQDLASASLEEVNQLWAGLGYYSRGRRLQEGARKVVEELGGHMPRTAETLQQLLPGVGRYTAGAIASIAFGQATGVVDGNVARVLCRVRAIGADPSSTLVSQQLWGLAQQLVDPARPGDFNQAAMELGATVCTPQRPLCSQCPVESLCRARQRVEQEQLLASGSLSGSPDVEECAPNTGQCHLCLPPSEPWDQTLGVVNFPRKASRKPPREESSATCVLEQPGALGAQILLVQRPNSGLLAGLWEFPSVTWEPSEQLQRKALLQELQRWAGPLPATHLRHLGEVVHTFSHIKLTYQVYGLALEGKTPVTTVPPGARWLTQEEFHTAAVSTAMKKVFRVYQGQQPGTCMGSKRSQVSSPCSRKKPRMGQQVLDNFFRSHISTDAHSLNSAAQ [Q435K], the “8OG:A repair function score” value is 0.0819. With MRKPRAAVGSGHRKQAASQEGRQKHAKNNSQAKPSACDGLARQPEEVVLQASVSSYHLFRDVAEVTAFRGSLLSWYDQEKRDLPWRRRAEDEMDLDRRAYAVWVSEVMLQQTQVATVINYYTGWMQKWPTLQDLASASLEEVNQLWAGLGYYSRGRRLQEGARKVVEELGGHMPRTAETLQQLLPGVGRYTAGAIASIAFGQATGVVDGNVARVLCRVRAIGADPSSTLVSQQLWGLAQQLVDPARPGDFNQAAMELGATVCTPQRPLCSQCPVESLCRARQRVEQEQLLASGSLSGSPDVEECAPNTGQCHLCLPPSEPWDQTLGVVNFPRKASRKPPREESSATCVLEQPGALGAQILLVQRPNSGLLAGLWEFPSVTWEPSEQLQRKALLQELQRWAGPLPATHLRHLGEVVHTFSHIKLTYQVYGLALEGLTPVTTVPPGARWLTQEEFHTAAVSTAMKKVFRVYQGQQPGTCMGSKRSQVSSPCSRKKPRMGQQVLDNFFRSHISTDAHSLNSAAQ [Q435L] the figure was 0.0233.

Regarding MRKPRAAVGSGHRKQAASQEGRQKHAKNNSQAKPSACDGLARQPEEVVLQASVSSYHLFRDVAEVTAFRGSLLSWYDQEKRDLPWRRRAEDEMDLDRRAYAVWVSEVMLQQTQVATVINYYTGWMQKWPTLQDLASASLEEVNQLWAGLGYYSRGRRLQEGARKVVEELGGHMPRTAETLQQLLPGVGRYTAGAIASIAFGQATGVVDGNVARVLCRVRAIGADPSSTLVSQQLWGLAQQLVDPARPGDFNQAAMELGATVCTPQRPLCSQCPVESLCRARQRVEQEQLLASGSLSGSPDVEECAPNTGQCHLCLPPSEPWDQTLGVVNFPRKASRKPPREESSATCVLEQPGALGAQILLVQRPNSGLLAGLWEFPSVTWEPSEQLQRKALLQELQRWAGPLPATHLRHLGEVVHTFSHIKLTYQVYGLALEGITPVTTVPPGARWLTQEEFHTAAVSTAMKKVFRVYQGQQPGTCMGSKRSQVSSPCSRKKPRMGQQVLDNFFRSHISTDAHSLNSAAQ [Q435I], the “8OG:A repair function score” value amounted to 0.00734. In the case of MRKPRAAVGSGHRKQAASQEGRQKHAKNNSQAKPSACDGLARQPEEVVLQASVSSYHLFRDVAEVTAFRGSLLSWYDQEKRDLPWRRRAEDEMDLDRRAYAVWVSEVMLQQTQVATVINYYTGWMQKWPTLQDLASASLEEVNQLWAGLGYYSRGRRLQEGARKVVEELGGHMPRTAETLQQLLPGVGRYTAGAIASIAFGQATGVVDGNVARVLCRVRAIGADPSSTLVSQQLWGLAQQLVDPARPGDFNQAAMELGATVCTPQRPLCSQCPVESLCRARQRVEQEQLLASGSLSGSPDVEECAPNTGQCHLCLPPSEPWDQTLGVVNFPRKASRKPPREESSATCVLEQPGALGAQILLVQRPNSGLLAGLWEFPSVTWEPSEQLQRKALLQELQRWAGPLPATHLRHLGEVVHTFSHIKLTYQVYGLALEGFTPVTTVPPGARWLTQEEFHTAAVSTAMKKVFRVYQGQQPGTCMGSKRSQVSSPCSRKKPRMGQQVLDNFFRSHISTDAHSLNSAAQ [Q435F], the “8OG:A repair function score” value is -0.052. With MRKPRAAVGSGHRKQAASQEGRQKHAKNNSQAKPSACDGLARQPEEVVLQASVSSYHLFRDVAEVTAFRGSLLSWYDQEKRDLPWRRRAEDEMDLDRRAYAVWVSEVMLQQTQVATVINYYTGWMQKWPTLQDLASASLEEVNQLWAGLGYYSRGRRLQEGARKVVEELGGHMPRTAETLQQLLPGVGRYTAGAIASIAFGQATGVVDGNVARVLCRVRAIGADPSSTLVSQQLWGLAQQLVDPARPGDFNQAAMELGATVCTPQRPLCSQCPVESLCRARQRVEQEQLLASGSLSGSPDVEECAPNTGQCHLCLPPSEPWDQTLGVVNFPRKASRKPPREESSATCVLEQPGALGAQILLVQRPNSGLLAGLWEFPSVTWEPSEQLQRKALLQELQRWAGPLPATHLRHLGEVVHTFSHIKLTYQVYGLALEGGTPVTTVPPGARWLTQEEFHTAAVSTAMKKVFRVYQGQQPGTCMGSKRSQVSSPCSRKKPRMGQQVLDNFFRSHISTDAHSLNSAAQ [Q435G] the figure was -0.0569; with MRKPRAAVGSGHRKQAASQEGRQKHAKNNSQAKPSACDGLARQPEEVVLQASVSSYHLFRDVAEVTAFRGSLLSWYDQEKRDLPWRRRAEDEMDLDRRAYAVWVSEVMLQQTQVATVINYYTGWMQKWPTLQDLASASLEEVNQLWAGLGYYSRGRRLQEGARKVVEELGGHMPRTAETLQQLLPGVGRYTAGAIASIAFGQATGVVDGNVARVLCRVRAIGADPSSTLVSQQLWGLAQQLVDPARPGDFNQAAMELGATVCTPQRPLCSQCPVESLCRARQRVEQEQLLASGSLSGSPDVEECAPNTGQCHLCLPPSEPWDQTLGVVNFPRKASRKPPREESSATCVLEQPGALGAQILLVQRPNSGLLAGLWEFPSVTWEPSEQLQRKALLQELQRWAGPLPATHLRHLGEVVHTFSHIKLTYQVYGLALEGETPVTTVPPGARWLTQEEFHTAAVSTAMKKVFRVYQGQQPGTCMGSKRSQVSSPCSRKKPRMGQQVLDNFFRSHISTDAHSLNSAAQ [Q435E], -0.132.

The record behind these values is the supplement of paper PMC11908140.
